In paper PMC7553530:

What follows are substances tested against recombinant human PD-L1 (rhPD-L1) ectodomain (human) (UniProt Q9NZQ7) (assay: SPR).
Chain of UniProt Q9NZQ7 (Q9NZQ7 19-238): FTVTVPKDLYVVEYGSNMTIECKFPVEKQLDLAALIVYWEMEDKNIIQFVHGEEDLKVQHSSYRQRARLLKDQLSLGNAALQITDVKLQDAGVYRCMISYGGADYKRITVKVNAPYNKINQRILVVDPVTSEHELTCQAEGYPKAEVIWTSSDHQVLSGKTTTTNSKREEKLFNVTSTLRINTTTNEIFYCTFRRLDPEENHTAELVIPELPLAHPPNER
Substance “MVF-PD-1 (32–50) (from UniProt P69353 288-302) (peptide)” has a response (RU) of 11 RU.
“MVF-PD-1 (45–64) (from UniProt P69353 288-302) (peptide)” showed a response (RU) of 110 RU.
“MVF-PD-1 (73–90) (from UniProt P69353 288-302) (peptide)” gave a response (RU) of 110 RU.
Work on “MVF-PD-1 (92–110) (from UniProt P69353 288-302) (peptide)” yielded a response (RU) of 110 RU.
